The record followed here is US20200392227A1 (LYVGEN BIOPHARMA, published 2020).

Test [1] has as its target T1, human FcγRIIA(R131) expressed on CHO cells (human, UniProt P12318 34-317).
T1 construct: whole, on cells
T1 sequence (looked up): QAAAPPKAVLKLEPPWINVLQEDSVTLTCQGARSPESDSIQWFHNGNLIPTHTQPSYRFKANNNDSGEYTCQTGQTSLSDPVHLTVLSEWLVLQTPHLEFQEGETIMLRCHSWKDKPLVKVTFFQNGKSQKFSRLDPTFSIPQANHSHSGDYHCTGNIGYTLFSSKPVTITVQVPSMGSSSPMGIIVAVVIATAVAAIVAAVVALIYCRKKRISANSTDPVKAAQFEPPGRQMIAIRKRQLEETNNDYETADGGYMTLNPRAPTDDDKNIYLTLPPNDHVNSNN
The experiment in a line: FACS, CHO cells expressing FcγRIIA(R131).

In test [2] the target is T2, human FcγRIIB expressed on CHO cells (human, UniProt P31994 43-310).
T2 construct: whole, on cells; also called CD32B
T2 sequence (looked up): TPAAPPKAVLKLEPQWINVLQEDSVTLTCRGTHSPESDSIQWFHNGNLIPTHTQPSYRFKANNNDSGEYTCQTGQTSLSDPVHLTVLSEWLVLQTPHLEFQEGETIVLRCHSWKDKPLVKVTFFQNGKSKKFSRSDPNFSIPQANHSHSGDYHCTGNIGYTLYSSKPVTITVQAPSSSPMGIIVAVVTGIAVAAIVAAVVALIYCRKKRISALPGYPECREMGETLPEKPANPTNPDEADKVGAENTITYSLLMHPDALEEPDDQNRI
The experiment in a line: FACS, CHO cells expressing FcγRIIB. Here is the method: For FACS analysis of the IgG mutants' binding to different FcγRs, FcγR overexpressing CHO cells were harvested using trypsin-EDTA and were suspended in cold staining buffer (3% BSA in PBS). Test IgG mutants, which were diluted in staining buffer, were added into the cells. The mixture was incubated 4° C. for 2 hours, and then washed twice with cold staining buffer and re-suspended in PE-labeled anti-human IgG followed by incubation at 4° C. for 2 hours. The mixture was washed twice with staining buffer and re-suspended in 2% PFA in PBS for FACS.
Background: In flow cytometry, cells or beads pass a laser one at a time.

Test [3] has as its target T3, human FcγRIIC expressed on CHO cells (human, UniProt P31995 43-323).
T3 construct: whole, on cells
T3 sequence (looked up): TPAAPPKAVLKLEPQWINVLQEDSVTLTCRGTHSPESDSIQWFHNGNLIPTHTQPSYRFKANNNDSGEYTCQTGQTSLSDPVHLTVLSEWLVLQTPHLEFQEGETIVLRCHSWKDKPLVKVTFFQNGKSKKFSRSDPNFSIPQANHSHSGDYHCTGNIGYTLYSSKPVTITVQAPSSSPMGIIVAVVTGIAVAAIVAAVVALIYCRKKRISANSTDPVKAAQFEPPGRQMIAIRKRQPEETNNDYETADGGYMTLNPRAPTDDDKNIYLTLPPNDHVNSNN
As to the kind of experiment: FACS, CHO cells expressing FcγRIIC.

Test [4] deals with T4, human FcγRIIA(H131) expressed on CHO cells (human, UniProt P12318 34-317).
T4 construct: whole, on cells
T4 sequence (looked up): T1 sequence (looked up) with R134H
The experiment in a line: FACS, CHO cells expressing FcγRIIA(H131).

For test [5], the target named is T5, human FcγRI expressed on CHO cells (human, UniProt P12314 16-374).
T5 construct: whole, on cells
As to the kind of experiment: FACS, CHO cells expressing FcγRI. The essentials: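 Trypsin-harvested CHO cells overexpressing each FcγR were incubated 2 h at 4 °C with IgG mutants in 3% BSA/PBS. Bound IgG was detected with PE-labeled anti-human IgG (2 h, 4 °C), then cells were fixed in 2% PFA and analysed by flow cytometry.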

Test [6] addresses T6, human FcRIIA protein (MednaBio, E1033) (human, UniProt P12318 34-218, limits assumed).
T6 construct: Bought; also called FcγRIIA
T6 sequence (looked up): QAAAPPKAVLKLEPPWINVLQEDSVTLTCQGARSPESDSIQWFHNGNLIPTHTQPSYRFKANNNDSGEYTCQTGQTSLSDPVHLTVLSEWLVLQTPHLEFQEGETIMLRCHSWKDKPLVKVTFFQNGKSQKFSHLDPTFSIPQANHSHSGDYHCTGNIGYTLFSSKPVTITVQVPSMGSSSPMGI
As to the kind of experiment: BLI. In general terms: In BLI a coated tip is dipped into the sample, and binding shifts an interference pattern.

Test [7] concerns the target T7, human FcRIIB/C protein (MednaBio, E1034) (human, UniProt P31994 43-217, limits assumed).
T7 construct: Bought as FcRIIB/C; also called FcγRIIB; CD32B
T7 sequence (looked up): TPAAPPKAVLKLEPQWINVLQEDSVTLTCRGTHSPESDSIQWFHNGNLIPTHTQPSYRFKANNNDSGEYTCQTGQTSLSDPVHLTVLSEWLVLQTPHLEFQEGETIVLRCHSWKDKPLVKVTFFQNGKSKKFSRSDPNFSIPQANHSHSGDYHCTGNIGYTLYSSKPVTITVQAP
The experiment in a line: BLI.

For test [8], the target named is T8, human FcRI protein (MednaBio, E1031) (human, UniProt P12314 16-288, limits assumed).
T8 construct: Bought; loaded on anti-penta-HIS biosensors; also called FcγRI
As to the kind of experiment: BLI.

Test [9] deals with T9, human FcRIIIA-F158 protein (MednaBio, E1036) (human, UniProt P08637 17-208).
T9 construct: Bought; also called FcγRIIIA(F)
As to the kind of experiment: BLI.

For test [10], the target named is T10, human FcRIIIA-V158 protein (MednaBio, E1035) (human, UniProt P08637 17-208).
T10 construct: Bought; also called FcγRIIIA(V); FcgRIIIA(V)
As to the kind of experiment: BLI.

Test [11] deals with T11, human FcRn protein (MednaBio, E1032) (human, UniProt P55899 24-297; P61769 21-119).
T11 construct: Bought; assays at pH 6
As to the kind of experiment: BLI.

Where a chain is given by its changes, count along the chain named.

T11 sequence (P55899 24-297 limits assumed, form in doubt, chain 1 of 2): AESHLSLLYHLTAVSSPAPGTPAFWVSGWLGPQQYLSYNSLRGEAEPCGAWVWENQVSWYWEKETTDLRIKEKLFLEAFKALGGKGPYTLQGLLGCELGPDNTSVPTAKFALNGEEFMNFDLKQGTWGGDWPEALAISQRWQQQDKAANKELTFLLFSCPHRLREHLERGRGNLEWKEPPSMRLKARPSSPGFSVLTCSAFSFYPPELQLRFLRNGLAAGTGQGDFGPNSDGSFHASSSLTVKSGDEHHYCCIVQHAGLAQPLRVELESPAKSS
T11 sequence (P61769 21-119 limits assumed, form in doubt, chain 2 of 2): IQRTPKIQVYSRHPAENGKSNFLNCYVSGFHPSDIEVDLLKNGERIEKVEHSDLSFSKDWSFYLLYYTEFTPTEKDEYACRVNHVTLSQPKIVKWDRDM
T9 sequence (P08637 17-208 limits assumed): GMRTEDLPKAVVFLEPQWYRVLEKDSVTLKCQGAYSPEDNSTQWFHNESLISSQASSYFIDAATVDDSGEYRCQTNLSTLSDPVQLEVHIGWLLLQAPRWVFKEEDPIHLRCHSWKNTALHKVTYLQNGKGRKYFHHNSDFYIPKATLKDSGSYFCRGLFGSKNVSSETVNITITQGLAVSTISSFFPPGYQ
T10 sequence (P08637 17-208 F176V): as the sequence (P08637 17-208 limits assumed) above, with F160V counted along it
T8 sequence (P12314 16-288 limits assumed): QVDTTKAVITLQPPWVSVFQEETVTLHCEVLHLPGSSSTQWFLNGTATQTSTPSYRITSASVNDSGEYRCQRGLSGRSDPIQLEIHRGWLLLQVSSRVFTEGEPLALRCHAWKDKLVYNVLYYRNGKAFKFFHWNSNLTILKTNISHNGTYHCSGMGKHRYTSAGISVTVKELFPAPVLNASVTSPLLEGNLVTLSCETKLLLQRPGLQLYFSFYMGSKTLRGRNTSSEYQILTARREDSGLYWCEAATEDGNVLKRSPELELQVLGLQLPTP
T5 sequence (P12314 16-374): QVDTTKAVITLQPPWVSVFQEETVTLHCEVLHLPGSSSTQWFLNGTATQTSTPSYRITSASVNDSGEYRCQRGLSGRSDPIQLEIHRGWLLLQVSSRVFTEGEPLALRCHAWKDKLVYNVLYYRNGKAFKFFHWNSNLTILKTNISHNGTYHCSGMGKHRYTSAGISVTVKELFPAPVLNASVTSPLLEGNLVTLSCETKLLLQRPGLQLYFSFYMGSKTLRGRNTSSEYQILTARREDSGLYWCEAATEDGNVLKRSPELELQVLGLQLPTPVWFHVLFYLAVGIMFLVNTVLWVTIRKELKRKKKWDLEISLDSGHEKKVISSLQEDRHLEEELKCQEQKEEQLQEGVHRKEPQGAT

B1: anti-CD137 IgG2 with Fc variant G2m1 (antibody)
heavy: EVQLVQSGAEVKKPGESLRISCKGSGYSFSTYWISWVRQMPGKGLEWMGKIYPGDSYTNYSPSFQGQVTISADKSISTAYLQWSSLKASDTAMYYCARGYGIFDYWGQGTLVTVSSASTKGPSVFPLAPCSRSTSESTAALGCLVKDYFPEPVTVSWNSGALTSGVHTFPAVLQSSGLYSLSSVVTVPSSNFGTQTYTCNVDHKPSNTKVDKTVERKCCVECPPCPAPPVASVFLFPPKPKDTLMISRTPEVTCVVVDVSHEDPEVQFNWYVDGVEVHNAKTKPREEQFNSTFRVVSVLTVVHQDWLNGKEYKCKVSNKGLPAPIEKTISKTKGQPREPQVYTLPPSREEMTKNQVSLTCLVKGFYPSDIAVEWESNGQPENNYKTTPPMLDSDGSFFLYSKLTVDKSRWQQGNVFSCSVMHEALHNHYTQKSLSLSPGK
light: SYELTQPPSVSVSPGQTASITCSGDNIGDQYAHWYQQKPGQSPVLVIYQDKNRPSGIPERFSGSNSGNTATLTISGTQAMDEADYYCATYTGFGSLAVFGGGTKLTVLGQPKAAPSVTLFPPSSEELQANKATLVCLISDFYPGAVTVAWKADSSPVKAGVETTTPSKQSNNKYAASSYLSLTPEQWKSHRSYSCQVTHEGSTVEKTVAPTECS
notes: copies: 2 + 2
Broadly, the Kd is a measure of binding affinity in units of concentration. One may read the koff as the rate constant with which the complex falls apart. A high value points to a short-lived complex. What is called kon is the rate constant with which the complex forms. Read a low kon as slow association. With B1, the binding result is listed as “no binding (tested: 10 ug/ml)” in test [1]; “no binding (tested: 10 ug/ml)” in test [2]; “no binding (tested: 10 ug/ml)” in test [3]; “no binding (tested: 10 ug/ml)” in test [4]; “no binding (tested: 10 ug/ml)” in test [5]; “no binding (tested: 300 nM)” in test [6]. In addition, the binding result in test [7], in [8], in [9] and in test [10] was “no binding (tested: 300 nM)” in each case. In test [11], this molecule yielded a Kd of 5.5 nM. The same molecule had a koff in test [11] of 0.00096 s⁻¹. In [11], the kon was 170000 M⁻¹ s⁻¹.
